# Reference: the supplement of paper PMC10567573
# B1: ZNF8 (parent)
# chain: RIHTGERPYMCKECGKAFSQNSSL
# Variants of: B1
# Assay: protein stability index of a GFP-peptide fusion (GPS, HEK-293T) (PSI 1-6); higher = more stable
# Conditions: c terminus: a fixed tail appended
# 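Also: lentivirally expressed fusions sorted by FACS into six bins by GFP to DsRed ratio, PSI derived from sequencing read proportions per bin multiplied by bin number.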
row,Variant,protein stability index
1,RIHNGERPYMCKECGKAFSQNSSL [T4N],2.91
2,RIHRGERPYMCKECGKAFSQNSSL [T4R],2.04
3,RIHFGERPYMCKECGKAFSQNSSL [T4F],2.42
4,RIHDGERPYMCKECGKAFSQNSSL [T4D],2.74
5,RIHYGERPYMCKECGKAFSQNSSL [T4Y],2.1
6,RIHTGERPYMCKHCGKAFSQNSSL [E13H],2.14
7,RIHTGWRPYMCKECGKAFSQNSSL [E6W],2.27
8,RIHTGARPYMCKECGKAFSQNSSL [E6A],1.91
9,RIHTGMRPYMCKECGKAFSQNSSL [E6M],2.7
10,RIHTGERPYMCKECGDAFSQNSSL [K16D],2.52
11,RIHTGERPYMCKECGIAFSQNSSL [K16I],2.08
12,RIHTGERPYMCKECGGAFSQNSSL [K16G],2.41
13,RISTGERPYMCKECGKAFSQNSSL [H3S],2.38
14,RIETGERPYMCKECGKAFSQNSSL [H3E],3.1
15,RIWTGERPYMCKECGKAFSQNSSL [H3W],2.05
16,RITTGERPYMCKECGKAFSQNSSL [H3T],2.8
17,RIHTGERPYGCKECGKAFSQNSSL [M10G],2.7
18,RIHTGERPYWCKECGKAFSQNSSL [M10W],2.3
19,RIHTGERPYNCKECGKAFSQNSSL [M10N],2.12
20,RIHTGERPYICKECGKAFSQNSSL [M10I],2.69
21,RIHTGERPYLCKECGKAFSQNSSL [M10L],2.74
22,RIHTGERPYMCKECGKAFSKNSSL [Q20K],2.94
23,RIHTGERPYMCKECGKAFSNNSSL [Q20N],2.72
24,RIHTGERPYMCKECGKAFSCNSSL [Q20C],2.54

row,Variant,protein stability index
1,RIHTGERPYMCKECGKAFSTNSSL [Q20T],2.61
2,RIHTGERPYMCKECGKAFSLNSSL [Q20L],2.1
3,RIHTGERPYMCKECGKAFSGNSSL [Q20G],2.83
4,RIHTGERPYMCKECGKAFSYNSSL [Q20Y],2.06
5,RIHTGERPYMWKECGKAFSQNSSL [C11W],1.98
6,RIHTGERPYMVKECGKAFSQNSSL [C11V],2.72
7,RIHTGERPYMTKECGKAFSQNSSL [C11T],2.48
8,RIHTGERPYMFKECGKAFSQNSSL [C11F],2.36
9,RIHTGERPYMIKECGKAFSQNSSL [C11I],2.19
10,RIHTGERPYMCKECGKAMSQNSSL [F18M],2.76
11,RIHTGERPYMCKECGKAASQNSSL [F18A],2.93
12,RIHTGERPYMCKECGKAISQNSSL [F18I],2.53
13,RIHTGERPYMCKECGKALSQNSSL [F18L],2.44
14,RIHTGERPYMCKECGKADSQNSSL [F18D],3.84
15,RIHTGERPYMCKECGKAYSQNSSL [F18Y],2.39
16,RIHTGERPCMCKECGKAFSQNSSL [Y9C],4.27
17,RIHTGERPHMCKECGKAFSQNSSL [Y9H],2.86
18,RIHTGERPIMCKECGKAFSQNSSL [Y9I],2.21
19,RIHTGERPRMCKECGKAFSQNSSL [Y9R],2.02
20,LIHTGERPYMCKECGKAFSQNSSL [R1L],2.63
21,FIHTGERPYMCKECGKAFSQNSSL [R1F],1.97
22,MIHTGERPYMCKECGKAFSQNSSL [R1M],3.04
23,EIHTGERPYMCKECGKAFSQNSSL [R1E],2.87
24,AIHTGERPYMCKECGKAFSQNSSL [R1A],2.93

row,Variant,protein stability index
1,RIHTFERPYMCKECGKAFSQNSSL [G5F],2.09
2,RIHTNERPYMCKECGKAFSQNSSL [G5N],2.44
3,RIHTSERPYMCKECGKAFSQNSSL [G5S],2.53
4,RIHTIERPYMCKECGKAFSQNSSL [G5I],1.83
5,RIHTEERPYMCKECGKAFSQNSSL [G5E],3.37
6,RIHTGEAPYMCKECGKAFSQNSSL [R7A],2.6
7,RIHTGEDPYMCKECGKAFSQNSSL [R7D],3.36
8,RIHTGEYPYMCKECGKAFSQNSSL [R7Y],2.39
9,RIHTGERHYMCKECGKAFSQNSSL [P8H],2.12
10,RIHTGERDYMCKECGKAFSQNSSL [P8D],3.23
11,RIHTGERQYMCKECGKAFSQNSSL [P8Q],2.99
12,RIHTGERVYMCKECGKAFSQNSSL [P8V],2.67
13,RIHTGERAYMCKECGKAFSQNSSL [P8A],2.75
14,RIHTGERPYMCKECGKAFSQNSSF [L24F],2.48
15,RIHTGERPYMCKECGKAFSQNSSM [L24M],2.7
16,RIHTGERPYMCKECGKAFSQNSSG [L24G],2.8
17,RIHTGERPYMCKECGKAFSQNSSI [L24I],2.74
18,RIHTGERPYMCKECGKAFSQNSSP [L24P],3.18
19,RIHTGERPYMCKECGKAFAQNSSL [S19A],2.66
20,RIHTGERPYMCKECGKAFTQNSSL [S19T],2.35
21,RIHTGERPYMCKECGKAFCQNSSL [S19C],3.28
22,RIHTGERPYMCKECGKAFRQNSSL [S19R],1.91
23,RIHTGERPYMCKECGKWFSQNSSL [A17W],2.65
24,RIHTGERPYMCKECGKMFSQNSSL [A17M],2.67

row,Variant,protein stability index
1,RIHTGERPYMCKECGKRFSQNSSL [A17R],3.04
2,RIHTGERPYMCKECGKFFSQNSSL [A17F],2.42
3,RIHTGERPYMCKECGKAFSQNASL [S22A],2.49
4,RIHTGERPYMCKECGKAFSQNISL [S22I],1.91
5,RIHTGERPYMCKECGKAFSQNESL [S22E],1.98
6,RIHTGERPYMCKEWGKAFSQNSSL [C14W],2.12
7,RIHTGERPYMCKEGGKAFSQNSSL [C14G],3.18
8,RIHTGERPYMCKEKGKAFSQNSSL [C14K],3.58
9,RIHTGERPYMCKEFGKAFSQNSSL [C14F],2.65
10,RIHTGERPYMCKECGKAFSQGSSL [N21G],2.71
11,RIHTGERPYMCKECGKAFSQDSSL [N21D],3.08
12,RGHTGERPYMCKECGKAFSQNSSL [I2G],2.78
13,RTHTGERPYMCKECGKAFSQNSSL [I2T],1.74
14,RQHTGERPYMCKECGKAFSQNSSL [I2Q],3.57
15,RIHTGERPYMCIECGKAFSQNSSL [K12I],2.17
16,RIHTGERPYMCDECGKAFSQNSSL [K12D],3.02
17,RIHTGERPYMCEECGKAFSQNSSL [K12E],2.9
18,RIHTGERPYMCKECGKAFSQNSIL [S23I],2.02
19,RIHTGERPYMCKECGKAFSQNSQL [S23Q],2.58
20,RIHTGERPYMCKECGKAFSQNSVL [S23V],2.24
21,RIHTGERPYMCKECGKAFSQNSKL [S23K],3.26
22,RIHTGERPYMCKECGKAFSQNSYL [S23Y],2.03
